First the molecules themselves.
T1: human NPY2 receptor (human, UniProt P49146 1-381)
T1 construct: whole, on cells; also called hNPY2-R; hNPY2R
T1 sequence (looked up): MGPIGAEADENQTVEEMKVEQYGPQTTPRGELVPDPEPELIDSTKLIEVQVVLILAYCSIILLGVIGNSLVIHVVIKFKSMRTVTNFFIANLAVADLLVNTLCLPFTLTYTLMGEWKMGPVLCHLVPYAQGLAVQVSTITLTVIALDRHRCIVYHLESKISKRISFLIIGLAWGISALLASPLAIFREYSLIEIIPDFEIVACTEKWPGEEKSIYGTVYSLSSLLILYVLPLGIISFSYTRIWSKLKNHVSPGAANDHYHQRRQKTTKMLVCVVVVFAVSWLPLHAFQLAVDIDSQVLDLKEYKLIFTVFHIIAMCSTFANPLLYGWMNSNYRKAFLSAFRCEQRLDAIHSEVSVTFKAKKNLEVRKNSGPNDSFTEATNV

B1: Compound 68 (peptide)
peptide: Isovaleryl-APEK([Ahx-γGlu-C18 diacid])PEEDAEPEELQRYYVSLRHYYQWLTRQRY-NH2
SMILES: CC(C)CC(=O)N[C@@H](C)C(=O)N1CCC[C@H]1C(=O)N[C@@H](CCC(=O)O)C(=O)N[C@@H](CCCCNC(=O)CCCCCNC(=O)CC[C@H](NC(=O)CCCCCCCCCCCCCCCCC(=O)O)C(=O)O)C(=O)N1CCC[C@H]1C(=O)N[C@@H](CCC(=O)O)C(=O)N[C@@H](CCC(=O)O)C(=O)N[C@@H](CC(=O)O)C(=O)N[C@@H](C)C(=O)N[C@@H](CCC(=O)O)C(=O)N1CCC[C@H]1C(=O)N[C@@H](CCC(=O)O)C(=O)N[C@@H](CCC(=O)O)C(=O)N[C@@H](CC(C)C)C(=O)N[C@@H](CCC(N)=O)C(=O)N[C@@H](CCCNC(=N)N)C(=O)N[C@@H](Cc1ccc(O)cc1)C(=O)N[C@@H](Cc1ccc(O)cc1)C(=O)N[C@H](C(=O)N[C@@H](CO)C(=O)N[C@@H](CC(C)C)C(=O)N[C@@H](CCCNC(=N)N)C(=O)N[C@@H](Cc1c[nH]cn1)C(=O)N[C@@H](Cc1ccc(O)cc1)C(=O)N[C@@H](Cc1ccc(O)cc1)C(=O)N[C@@H](CCC(N)=O)C(=O)N[C@@H](Cc1c[nH]c2ccccc12)C(=O)N[C@@H](CC(C)C)C(=O)N[C@H](C(=O)N[C@@H](CCCNC(=N)N)C(=O)N[C@@H](CCC(N)=O)C(=O)N[C@@H](CCCNC(=N)N)C(=O)N[C@@H](Cc1ccc(O)cc1)C(N)=O)[C@@H](C)O)C(C)C
B2: Compound 73 (peptide)
peptide: Isovaleryl-APEK([Ahx-γGlu-C18 diacid])PEEAASPEELQRYYVALRHYYNWLTRQRY-NH2
SMILES: CC(C)CC(=O)N[C@@H](C)C(=O)N1CCC[C@H]1C(=O)N[C@@H](CCC(=O)O)C(=O)N[C@@H](CCCCNC(=O)CCCCCNC(=O)CC[C@H](NC(=O)CCCCCCCCCCCCCCCCC(=O)O)C(=O)O)C(=O)N1CCC[C@H]1C(=O)N[C@@H](CCC(=O)O)C(=O)N[C@@H](CCC(=O)O)C(=O)N[C@@H](C)C(=O)N[C@@H](C)C(=O)N[C@@H](CO)C(=O)N1CCC[C@H]1C(=O)N[C@@H](CCC(=O)O)C(=O)N[C@@H](CCC(=O)O)C(=O)N[C@@H](CC(C)C)C(=O)N[C@@H](CCC(N)=O)C(=O)N[C@@H](CCCNC(=N)N)C(=O)N[C@@H](Cc1ccc(O)cc1)C(=O)N[C@@H](Cc1ccc(O)cc1)C(=O)N[C@H](C(=O)N[C@@H](C)C(=O)N[C@@H](CC(C)C)C(=O)N[C@@H](CCCNC(=N)N)C(=O)N[C@@H](Cc1c[nH]cn1)C(=O)N[C@@H](Cc1ccc(O)cc1)C(=O)N[C@@H](Cc1ccc(O)cc1)C(=O)N[C@@H](CC(N)=O)C(=O)N[C@@H](Cc1c[nH]c2ccccc12)C(=O)N[C@@H](CC(C)C)C(=O)N[C@H](C(=O)N[C@@H](CCCNC(=N)N)C(=O)N[C@@H](CCC(N)=O)C(=O)N[C@@H](CCCNC(=N)N)C(=O)N[C@@H](Cc1ccc(O)cc1)C(N)=O)[C@@H](C)O)C(C)C
B3: Compound 80 (peptide)
peptide: Isovaleryl-APEK([Ahx-γGlu-C18 diacid])PEEDASEAELQRYYVSLRHYYNWLTRQRY-NH2
SMILES: CC(C)CC(=O)N[C@@H](C)C(=O)N1CCC[C@H]1C(=O)N[C@@H](CCC(=O)O)C(=O)N[C@@H](CCCCNC(=O)CCCCCNC(=O)CC[C@H](NC(=O)CCCCCCCCCCCCCCCCC(=O)O)C(=O)O)C(=O)N1CCC[C@H]1C(=O)N[C@@H](CCC(=O)O)C(=O)N[C@@H](CCC(=O)O)C(=O)N[C@@H](CC(=O)O)C(=O)N[C@@H](C)C(=O)N[C@@H](CO)C(=O)N[C@@H](CCC(=O)O)C(=O)N[C@@H](C)C(=O)N[C@@H](CCC(=O)O)C(=O)N[C@@H](CC(C)C)C(=O)N[C@@H](CCC(N)=O)C(=O)N[C@@H](CCCNC(=N)N)C(=O)N[C@@H](Cc1ccc(O)cc1)C(=O)N[C@@H](Cc1ccc(O)cc1)C(=O)N[C@H](C(=O)N[C@@H](CO)C(=O)N[C@@H](CC(C)C)C(=O)N[C@@H](CCCNC(=N)N)C(=O)N[C@@H](Cc1c[nH]cn1)C(=O)N[C@@H](Cc1ccc(O)cc1)C(=O)N[C@@H](Cc1ccc(O)cc1)C(=O)N[C@@H](CC(N)=O)C(=O)N[C@@H](Cc1c[nH]c2ccccc12)C(=O)N[C@@H](CC(C)C)C(=O)N[C@H](C(=O)N[C@@H](CCCNC(=N)N)C(=O)N[C@@H](CCC(N)=O)C(=O)N[C@@H](CCCNC(=N)N)C(=O)N[C@@H](Cc1ccc(O)cc1)C(N)=O)[C@@H](C)O)C(C)C
B4: Compound 69 (peptide)
peptide: Isovaleryl-APEK([Ahx-γGlu-C18 diacid])PPADASPEETQRYYVSLRHYYNWLTRQRY-NH2
SMILES: CC(C)CC(=O)N[C@@H](C)C(=O)N1CCC[C@H]1C(=O)N[C@@H](CCC(=O)O)C(=O)N[C@@H](CCCCNC(=O)CCCCCNC(=O)CC[C@H](NC(=O)CCCCCCCCCCCCCCCCC(=O)O)C(=O)O)C(=O)N1CCC[C@H]1C(=O)N1CCC[C@H]1C(=O)N[C@@H](C)C(=O)N[C@@H](CC(=O)O)C(=O)N[C@@H](C)C(=O)N[C@@H](CO)C(=O)N1CCC[C@H]1C(=O)N[C@@H](CCC(=O)O)C(=O)N[C@@H](CCC(=O)O)C(=O)N[C@H](C(=O)N[C@@H](CCC(N)=O)C(=O)N[C@@H](CCCNC(=N)N)C(=O)N[C@@H](Cc1ccc(O)cc1)C(=O)N[C@@H](Cc1ccc(O)cc1)C(=O)N[C@H](C(=O)N[C@@H](CO)C(=O)N[C@@H](CC(C)C)C(=O)N[C@@H](CCCNC(=N)N)C(=O)N[C@@H](Cc1c[nH]cn1)C(=O)N[C@@H](Cc1ccc(O)cc1)C(=O)N[C@@H](Cc1ccc(O)cc1)C(=O)N[C@@H](CC(N)=O)C(=O)N[C@@H](Cc1c[nH]c2ccccc12)C(=O)N[C@@H](CC(C)C)C(=O)N[C@H](C(=O)N[C@@H](CCCNC(=N)N)C(=O)N[C@@H](CCC(N)=O)C(=O)N[C@@H](CCCNC(=N)N)C(=O)N[C@@H](Cc1ccc(O)cc1)C(N)=O)[C@@H](C)O)C(C)C)[C@@H](C)O
B5: Compound 78 (peptide)
peptide: Isovaleryl-APAK([Ahx-γGlu-C18 diacid])PEEDASPEELQRYYVSLRHYYQWLTRQRY-NH2
SMILES: CC(C)CC(=O)N[C@@H](C)C(=O)N1CCC[C@H]1C(=O)N[C@@H](C)C(=O)N[C@@H](CCCCNC(=O)CCCCCNC(=O)CC[C@H](NC(=O)CCCCCCCCCCCCCCCCC(=O)O)C(=O)O)C(=O)N1CCC[C@H]1C(=O)N[C@@H](CCC(=O)O)C(=O)N[C@@H](CCC(=O)O)C(=O)N[C@@H](CC(=O)O)C(=O)N[C@@H](C)C(=O)N[C@@H](CO)C(=O)N1CCC[C@H]1C(=O)N[C@@H](CCC(=O)O)C(=O)N[C@@H](CCC(=O)O)C(=O)N[C@@H](CC(C)C)C(=O)N[C@@H](CCC(N)=O)C(=O)N[C@@H](CCCNC(=N)N)C(=O)N[C@@H](Cc1ccc(O)cc1)C(=O)N[C@@H](Cc1ccc(O)cc1)C(=O)N[C@H](C(=O)N[C@@H](CO)C(=O)N[C@@H](CC(C)C)C(=O)N[C@@H](CCCNC(=N)N)C(=O)N[C@@H](Cc1c[nH]cn1)C(=O)N[C@@H](Cc1ccc(O)cc1)C(=O)N[C@@H](Cc1ccc(O)cc1)C(=O)N[C@@H](CCC(N)=O)C(=O)N[C@@H](Cc1c[nH]c2ccccc12)C(=O)N[C@@H](CC(C)C)C(=O)N[C@H](C(=O)N[C@@H](CCCNC(=N)N)C(=O)N[C@@H](CCC(N)=O)C(=O)N[C@@H](CCCNC(=N)N)C(=O)N[C@@H](Cc1ccc(O)cc1)C(N)=O)[C@@H](C)O)C(C)C
B6: Compound 77 (peptide)
peptide: Isovaleryl-APAK([Ahx-γGlu-C18 diacid])PEEDASPEELQRYYVSLRHYQNWLTRQRY-NH2
SMILES: CC(C)CC(=O)N[C@@H](C)C(=O)N1CCC[C@H]1C(=O)N[C@@H](C)C(=O)N[C@@H](CCCCNC(=O)CCCCCNC(=O)CC[C@H](NC(=O)CCCCCCCCCCCCCCCCC(=O)O)C(=O)O)C(=O)N1CCC[C@H]1C(=O)N[C@@H](CCC(=O)O)C(=O)N[C@@H](CCC(=O)O)C(=O)N[C@@H](CC(=O)O)C(=O)N[C@@H](C)C(=O)N[C@@H](CO)C(=O)N1CCC[C@H]1C(=O)N[C@@H](CCC(=O)O)C(=O)N[C@@H](CCC(=O)O)C(=O)N[C@@H](CC(C)C)C(=O)N[C@@H](CCC(N)=O)C(=O)N[C@@H](CCCNC(=N)N)C(=O)N[C@@H](Cc1ccc(O)cc1)C(=O)N[C@@H](Cc1ccc(O)cc1)C(=O)N[C@H](C(=O)N[C@@H](CO)C(=O)N[C@@H](CC(C)C)C(=O)N[C@@H](CCCNC(=N)N)C(=O)N[C@@H](Cc1c[nH]cn1)C(=O)N[C@@H](Cc1ccc(O)cc1)C(=O)N[C@@H](CCC(N)=O)C(=O)N[C@@H](CC(N)=O)C(=O)N[C@@H](Cc1c[nH]c2ccccc12)C(=O)N[C@@H](CC(C)C)C(=O)N[C@H](C(=O)N[C@@H](CCCNC(=N)N)C(=O)N[C@@H](CCC(N)=O)C(=O)N[C@@H](CCCNC(=N)N)C(=O)N[C@@H](Cc1ccc(O)cc1)C(N)=O)[C@@H](C)O)C(C)C

This note sets out measurements from patent publication US20260015399A1 (Boehringer Ingelheim, published 2026).

*1 amine or outer side, *2 acyl side, *3 side chain or, on linkers, in order; H or OH if unused. Side-chain parts run from the residue outwards. The star is where a group is joined. C18 diacid = O=C(O)CCCCCCCCCCCCCCCCC(=O)*; γGlu = O=C(O)[C@H](CCC(=O)[*:2])N[*:1]; Isovaleryl = CC(C)CC(=O)*; Ahx = NCCCCCC(=O)O

For the assay, the target named is T1, human NPY2 receptor. Nature of the assay: RLB: displacement of 125I-PYY(1-36) from hNPY2R membranes.
Take B1: the affinity corresponds to a Ki of 9.07 nM. This lies in the single-digit nanomolar range.
For the molecule B2, the Ki (commonly a dissociation constant, usually derived from enzyme kinetics or from competition with a known ligand) came out at 2.16 nM. Compared with the last molecule, the Ki is about 4.2-fold lower.
Consider B3, for which the inhibition constant (Ki) worked out at 4.62 nM.
The value for B4 was 0.54 nM; that for B5 was 1.8 nM; that for B6 was 9.73 nM.
